Patent US20130084292A1

Target: Gp96 receptor (heat shock protein 90 kDa beta (Grp94 or Gp96), member 1 [Homo sapiens]) (Homo sapiens) (UniProt P14625)
Experiment: cell-based or functional assay

Sequence of Gp96 receptor (heat shock protein 90 kDa beta (Grp94 or Gp96), member 1 [Homo sapiens]) (Homo sapiens) (P14625 22-803 limits assumed): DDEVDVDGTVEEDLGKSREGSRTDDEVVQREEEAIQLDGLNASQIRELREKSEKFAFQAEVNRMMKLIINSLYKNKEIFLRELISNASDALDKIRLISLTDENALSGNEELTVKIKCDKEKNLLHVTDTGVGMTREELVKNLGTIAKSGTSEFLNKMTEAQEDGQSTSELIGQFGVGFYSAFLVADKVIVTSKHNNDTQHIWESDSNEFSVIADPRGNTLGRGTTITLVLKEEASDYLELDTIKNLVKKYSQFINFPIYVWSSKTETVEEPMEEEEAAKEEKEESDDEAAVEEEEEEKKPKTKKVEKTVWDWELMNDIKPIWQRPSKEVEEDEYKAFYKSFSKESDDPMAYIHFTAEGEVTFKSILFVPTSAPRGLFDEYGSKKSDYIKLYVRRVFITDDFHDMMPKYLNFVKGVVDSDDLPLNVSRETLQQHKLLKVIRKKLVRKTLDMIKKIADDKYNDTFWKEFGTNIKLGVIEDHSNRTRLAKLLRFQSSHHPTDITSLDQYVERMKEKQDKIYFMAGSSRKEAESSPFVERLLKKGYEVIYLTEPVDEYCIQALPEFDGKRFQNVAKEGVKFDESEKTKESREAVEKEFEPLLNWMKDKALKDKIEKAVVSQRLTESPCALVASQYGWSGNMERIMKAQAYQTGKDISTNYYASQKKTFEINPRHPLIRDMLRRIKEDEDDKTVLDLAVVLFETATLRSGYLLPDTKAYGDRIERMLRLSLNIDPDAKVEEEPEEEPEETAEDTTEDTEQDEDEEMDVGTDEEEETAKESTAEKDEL

OmpA outer membrane protein of E. coli AIEC strain LF82 (from UniProt P0A910 22-346) (ligand)
invasion level of the LF82-ΔompA mutant on IEC pretreated with LF82 OMVs, relative to strain LF82 taken as 100%: 85.2%
residual invasion level of the LF82-ΔompA mutant in Intestine-407 cells compared to wild-type strain LF82 taken as 100%: 56.3%
